Source: US20040009534A1 (DYAX, published 2004)
Positions of bridges follow the written chain, without caps; N, C: chain ends. No end group written: not given here.

Legend:
human plasma IgG3 [1] = molecular target: T1, human plasma IgG3 (human, UniProt P01860-1 1-377); test: Oregon Green peptide, pH 4.0 + salt (500 mM NaCl)
T1 construct: Plasma-derived IgG isoform, bought
Experimental: (§1) Binding studies were performed using human plasma IgG isoforms: IgG1, IgG2, IgG3, and IgG4, obtained from Calbiochem.
(§2) Binding studies were carried out at either pH 4.0, 7.5, or 9.5, with or without salt in the following buffers: […]

human plasma IgG3 [2] = molecular target: T1, human plasma IgG3; test: Oregon Green peptide, pH 4.0 - salt
Experimental: as §1, §2

human plasma IgG3 [3] = molecular target: T1, human plasma IgG3; test: Oregon Green peptide, pH 9.5 + salt (500 mM NaCl)
Experimental: as §1, §2

human plasma IgG3 [4] = molecular target: T1, human plasma IgG3; test: Oregon Green peptide, pH 7.5 + salt (500 mM NaCl)
Experimental: as §1, §2

goat serum albumin [5] = molecular target: T2, goat serum albumin (Goat); test: labeled peptide, KD; PBS, pH 7.4, 0.14 M NaCl
T2 construct: also called GSA
T2 sequence (P85295 whole entry, looked up): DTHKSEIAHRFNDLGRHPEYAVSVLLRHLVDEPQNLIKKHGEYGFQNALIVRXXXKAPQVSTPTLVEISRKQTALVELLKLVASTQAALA

pig serum albumin [6] = molecular target: T3, pig serum albumin (Pig, UniProt P08835 25-607); test: labeled peptide, KD; 3 mM phosphate, pH 6.2, 0 M NaCl
T3 sequence (P08835 25-607 limits assumed): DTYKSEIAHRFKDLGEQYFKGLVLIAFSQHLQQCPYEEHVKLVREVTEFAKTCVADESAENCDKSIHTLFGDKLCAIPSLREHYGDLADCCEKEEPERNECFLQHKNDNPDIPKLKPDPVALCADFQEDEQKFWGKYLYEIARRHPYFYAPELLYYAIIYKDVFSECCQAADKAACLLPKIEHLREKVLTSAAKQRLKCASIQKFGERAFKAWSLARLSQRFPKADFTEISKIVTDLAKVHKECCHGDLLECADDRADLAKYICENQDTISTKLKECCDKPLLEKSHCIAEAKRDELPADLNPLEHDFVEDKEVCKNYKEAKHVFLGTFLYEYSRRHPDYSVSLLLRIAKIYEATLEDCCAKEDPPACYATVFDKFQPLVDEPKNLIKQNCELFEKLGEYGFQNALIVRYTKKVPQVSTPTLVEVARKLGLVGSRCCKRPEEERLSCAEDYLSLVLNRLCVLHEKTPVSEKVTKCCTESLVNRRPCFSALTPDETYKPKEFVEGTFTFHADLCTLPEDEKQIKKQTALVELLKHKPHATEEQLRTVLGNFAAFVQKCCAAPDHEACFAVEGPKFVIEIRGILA

goat serum albumin [7] = molecular target: T2, goat serum albumin; test: as above
rabbit serum albumin = rabbit serum albumin (Rabbit, UniProt P49065 25-608); test: as above
Chain of rabbit serum albumin (P49065 25-608 limits assumed): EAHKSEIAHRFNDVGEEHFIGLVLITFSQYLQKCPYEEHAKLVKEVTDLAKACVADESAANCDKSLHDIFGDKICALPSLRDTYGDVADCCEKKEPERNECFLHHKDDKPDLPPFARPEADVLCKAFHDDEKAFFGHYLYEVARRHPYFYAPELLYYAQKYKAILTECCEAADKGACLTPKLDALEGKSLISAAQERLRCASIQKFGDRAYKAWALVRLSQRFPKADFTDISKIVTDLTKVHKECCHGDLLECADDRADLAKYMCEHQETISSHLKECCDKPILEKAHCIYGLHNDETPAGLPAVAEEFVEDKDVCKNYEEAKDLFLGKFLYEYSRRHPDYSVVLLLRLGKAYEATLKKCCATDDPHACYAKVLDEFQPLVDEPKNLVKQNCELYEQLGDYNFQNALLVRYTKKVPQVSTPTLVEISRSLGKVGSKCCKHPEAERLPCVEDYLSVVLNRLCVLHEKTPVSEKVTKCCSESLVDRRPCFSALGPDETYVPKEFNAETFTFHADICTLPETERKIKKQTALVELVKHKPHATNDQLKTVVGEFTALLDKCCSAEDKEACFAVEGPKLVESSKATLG

human plasma IgG4 [8] = molecular target: T4, human plasma IgG4 (human, UniProt P01861-1 1-327 = IgG part); test: Oregon Green peptide, pH 7.5 - salt
T4 construct: Plasma-derived IgG isoform, bought
T4 sequence (P01861 other isoform, or with tags, fused parts or gaps): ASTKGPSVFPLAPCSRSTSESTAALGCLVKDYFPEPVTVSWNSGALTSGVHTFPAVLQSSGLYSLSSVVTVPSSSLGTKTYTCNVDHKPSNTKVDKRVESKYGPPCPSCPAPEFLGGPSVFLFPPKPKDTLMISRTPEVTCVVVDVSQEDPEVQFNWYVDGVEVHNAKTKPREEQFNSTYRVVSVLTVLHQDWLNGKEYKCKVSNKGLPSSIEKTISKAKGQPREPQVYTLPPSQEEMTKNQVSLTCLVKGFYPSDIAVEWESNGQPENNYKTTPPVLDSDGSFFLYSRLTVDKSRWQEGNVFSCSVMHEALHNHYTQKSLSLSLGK
Experimental: as §1, §2

human plasma IgG3 [9] = molecular target: T1, human plasma IgG3; test: Oregon Green peptide, pH 9.5 - salt
Experimental: as §1, §2

human plasma IgG2 [10] = molecular target: T5, human plasma IgG2 (human, UniProt P01859-1 1-326 = IgG part); test: Oregon Green peptide, pH 9.5 - salt
T5 construct: Plasma-derived IgG isoform, bought
T5 sequence (P01859 other isoform, or with tags, fused parts or gaps): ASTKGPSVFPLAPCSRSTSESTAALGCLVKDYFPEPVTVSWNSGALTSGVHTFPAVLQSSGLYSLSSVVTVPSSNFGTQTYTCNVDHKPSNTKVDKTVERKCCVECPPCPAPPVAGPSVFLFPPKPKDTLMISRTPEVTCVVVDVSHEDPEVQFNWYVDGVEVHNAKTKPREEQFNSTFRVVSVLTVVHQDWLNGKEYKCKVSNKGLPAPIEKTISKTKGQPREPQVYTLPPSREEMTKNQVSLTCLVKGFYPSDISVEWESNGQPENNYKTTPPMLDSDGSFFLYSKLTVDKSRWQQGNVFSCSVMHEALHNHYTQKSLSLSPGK
Experimental: as §1, §2

human plasma IgG3 [11] = molecular target: T1, human plasma IgG3; test: Oregon Green peptide, TBS pH 7.5
Experimental: as §1, §2

human plasma IgG4 [12] = molecular target: T4, human plasma IgG4; test: Oregon Green peptide, pH 4.0 - salt
Experimental: as §1, §2

human plasma IgG1 [13] = molecular target: T6, human plasma IgG1 (human, UniProt P01857-1 1-330 = IgG part); test: Oregon Green peptide, pH 4.0 - salt
T6 construct: Plasma-derived IgG isoform, bought
T6 sequence (P01857 other isoform, or with tags, fused parts or gaps): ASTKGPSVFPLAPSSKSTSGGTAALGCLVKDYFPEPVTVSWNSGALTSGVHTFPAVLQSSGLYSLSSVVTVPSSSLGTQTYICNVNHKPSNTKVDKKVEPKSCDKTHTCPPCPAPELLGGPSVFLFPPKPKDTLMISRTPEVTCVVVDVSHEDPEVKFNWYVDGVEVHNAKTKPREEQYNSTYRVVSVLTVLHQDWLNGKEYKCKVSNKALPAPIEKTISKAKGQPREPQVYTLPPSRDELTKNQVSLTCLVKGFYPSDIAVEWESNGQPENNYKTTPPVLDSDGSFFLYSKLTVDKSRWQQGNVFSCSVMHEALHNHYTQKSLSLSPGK
Experimental: as §1, §2

human plasma IgG1 [14] = molecular target: T6, human plasma IgG1; test: Oregon Green peptide, pH 7.5 - salt
Experimental: as §1, §2

human plasma IgG2 [15] = molecular target: T5, human plasma IgG2; test: Oregon Green peptide, pH 4.0 + salt (500 mM NaCl)
Experimental: as §1, §2

human plasma IgG1 [16] = molecular target: T6, human plasma IgG1; test: Oregon Green peptide, pH 4.0 + salt (500 mM NaCl)
Experimental: as §1, §2

human plasma IgG2 [17] = molecular target: T5, human plasma IgG2; test: Oregon Green peptide, pH 4.0 - salt
Experimental: as §1, §2

human plasma IgG2 [18] = molecular target: T5, human plasma IgG2; test: Oregon Green peptide, pH 7.5 - salt
Experimental: as §1, §2

human serum albumin [19] = molecular target: T7, human serum albumin (human, UniProt P02768 25-609); test: labeled peptide, KD; PBS, pH 7.4, 0.14 M NaCl
T7 construct: also called HSA
T7 sequence (P02768 25-609): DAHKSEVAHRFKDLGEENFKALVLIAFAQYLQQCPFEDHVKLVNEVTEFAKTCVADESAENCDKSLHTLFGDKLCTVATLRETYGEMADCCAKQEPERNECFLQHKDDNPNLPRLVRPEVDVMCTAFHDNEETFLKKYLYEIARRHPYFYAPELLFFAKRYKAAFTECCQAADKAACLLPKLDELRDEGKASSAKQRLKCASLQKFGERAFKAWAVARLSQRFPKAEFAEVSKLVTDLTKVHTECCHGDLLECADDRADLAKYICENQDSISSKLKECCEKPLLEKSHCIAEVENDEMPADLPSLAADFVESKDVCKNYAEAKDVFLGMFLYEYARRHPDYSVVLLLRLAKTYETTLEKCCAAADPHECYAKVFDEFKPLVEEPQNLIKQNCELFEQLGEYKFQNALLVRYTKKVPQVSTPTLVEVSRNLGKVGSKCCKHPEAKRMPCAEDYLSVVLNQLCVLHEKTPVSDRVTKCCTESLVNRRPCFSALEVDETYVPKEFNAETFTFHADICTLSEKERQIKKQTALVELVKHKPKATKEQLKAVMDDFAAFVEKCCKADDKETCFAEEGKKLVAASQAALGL

rat serum albumin [20] = molecular target: T8, rat serum albumin (Rat, UniProt P02770 25-608); test: labeled peptide, KD; PBS, pH 7.4, 0.14 M NaCl
T8 sequence (P02770 25-608 limits assumed): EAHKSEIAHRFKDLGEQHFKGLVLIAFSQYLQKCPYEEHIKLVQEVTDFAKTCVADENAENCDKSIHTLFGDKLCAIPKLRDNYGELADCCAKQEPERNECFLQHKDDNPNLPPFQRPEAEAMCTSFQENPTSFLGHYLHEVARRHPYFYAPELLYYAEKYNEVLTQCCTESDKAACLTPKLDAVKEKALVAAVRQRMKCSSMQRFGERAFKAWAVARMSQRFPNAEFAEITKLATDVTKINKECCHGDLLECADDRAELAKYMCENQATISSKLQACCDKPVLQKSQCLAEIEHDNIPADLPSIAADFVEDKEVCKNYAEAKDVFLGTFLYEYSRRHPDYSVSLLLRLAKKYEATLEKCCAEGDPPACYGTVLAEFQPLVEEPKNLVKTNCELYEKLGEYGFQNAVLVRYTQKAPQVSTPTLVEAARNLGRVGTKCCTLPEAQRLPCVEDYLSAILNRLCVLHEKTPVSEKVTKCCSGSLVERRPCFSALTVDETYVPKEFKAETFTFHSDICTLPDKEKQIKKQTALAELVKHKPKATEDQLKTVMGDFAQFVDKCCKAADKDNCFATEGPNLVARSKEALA

Rhesus serum albumin [21] = molecular target: T9, Rhesus serum albumin (Rhesus, UniProt Q28522 17-600); test: labeled peptide, KD; PBS, pH 7.4, 0.14 M NaCl
T9 sequence (Q28522 17-600 limits assumed): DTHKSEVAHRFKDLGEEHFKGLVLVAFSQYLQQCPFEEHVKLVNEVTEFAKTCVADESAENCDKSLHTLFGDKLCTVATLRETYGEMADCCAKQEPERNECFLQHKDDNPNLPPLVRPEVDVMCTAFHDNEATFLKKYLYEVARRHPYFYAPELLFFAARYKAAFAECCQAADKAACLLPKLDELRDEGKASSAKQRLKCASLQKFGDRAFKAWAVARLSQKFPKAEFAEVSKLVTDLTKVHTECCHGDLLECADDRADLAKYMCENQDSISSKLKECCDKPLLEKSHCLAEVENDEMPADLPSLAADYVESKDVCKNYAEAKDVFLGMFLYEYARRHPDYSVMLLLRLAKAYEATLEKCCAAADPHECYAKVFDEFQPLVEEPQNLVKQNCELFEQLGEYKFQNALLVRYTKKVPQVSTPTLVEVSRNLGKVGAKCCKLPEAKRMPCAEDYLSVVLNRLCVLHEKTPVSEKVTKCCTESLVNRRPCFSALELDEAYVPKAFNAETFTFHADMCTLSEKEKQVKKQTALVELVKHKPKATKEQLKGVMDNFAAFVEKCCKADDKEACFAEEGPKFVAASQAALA

pig serum albumin [22] = molecular target: T3, pig serum albumin; test: labeled peptide, KD; 3 mM phosphate, pH 6.2, 0 M NaCl; labeled peptide in solution; 3 mM phosphate, pH 6.2, 0 M NaCl
bovine serum albumin = molecular target: T10, bovine serum albumin (Bovine, UniProt P02769 25-607); test: as above
T10 construct: also called BSA
T10 sequence (P02769 25-607 limits assumed): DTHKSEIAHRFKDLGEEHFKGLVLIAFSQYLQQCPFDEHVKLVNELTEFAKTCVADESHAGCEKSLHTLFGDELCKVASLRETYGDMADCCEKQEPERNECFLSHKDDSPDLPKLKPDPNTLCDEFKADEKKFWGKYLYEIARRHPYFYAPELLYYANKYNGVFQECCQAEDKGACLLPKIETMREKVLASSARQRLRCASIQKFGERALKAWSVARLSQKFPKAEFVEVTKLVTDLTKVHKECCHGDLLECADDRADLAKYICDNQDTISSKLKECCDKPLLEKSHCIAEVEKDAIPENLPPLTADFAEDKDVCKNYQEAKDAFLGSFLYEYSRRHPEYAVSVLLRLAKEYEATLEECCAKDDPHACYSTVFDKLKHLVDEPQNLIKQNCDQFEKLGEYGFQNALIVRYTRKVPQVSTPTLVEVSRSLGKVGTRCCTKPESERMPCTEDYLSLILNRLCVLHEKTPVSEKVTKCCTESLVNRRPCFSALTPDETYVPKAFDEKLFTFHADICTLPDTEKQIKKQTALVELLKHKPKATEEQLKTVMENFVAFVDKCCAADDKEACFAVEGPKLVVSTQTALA

human serum albumin [23] = molecular target: T7, human serum albumin; test: labeled peptide, KD; 3 mM phosphate, pH 6.2, 0 M NaCl
rat serum albumin [24] = molecular target: T8, rat serum albumin; test: as above
Rhesus serum albumin [25] = molecular target: T9, Rhesus serum albumin; test: as above
human plasma IgG2 [26] = molecular target: T5, human plasma IgG2; test: Oregon Green peptide, pH 7.5 + salt (500 mM NaCl); pH 7.5 + salt
Experimental: as §1, §2

T1 sequence (P01860 other isoform, or with tags, fused parts or gaps): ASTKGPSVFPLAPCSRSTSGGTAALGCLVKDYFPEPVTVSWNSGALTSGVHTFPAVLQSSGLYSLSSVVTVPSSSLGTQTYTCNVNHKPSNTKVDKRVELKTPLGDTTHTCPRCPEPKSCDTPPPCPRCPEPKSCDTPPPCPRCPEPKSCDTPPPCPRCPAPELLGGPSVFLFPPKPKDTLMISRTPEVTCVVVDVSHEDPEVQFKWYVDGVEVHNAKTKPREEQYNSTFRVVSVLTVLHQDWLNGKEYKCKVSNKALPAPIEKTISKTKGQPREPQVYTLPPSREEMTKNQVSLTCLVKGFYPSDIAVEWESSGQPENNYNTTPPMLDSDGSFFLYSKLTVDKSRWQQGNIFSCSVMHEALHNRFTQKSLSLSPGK

B1: DX413 (peptide)
peptide: AGYWYCWFPDRPECPLYPGPEGGGK
modifications: N-terminal acetyl (Ac-); C-terminal amide (-NH2); Oregon Green labeled
notes: Synthesised by BACHEM, Oregon Green labeled, HPLC purified
Kd (human plasma IgG3 [1]): 1100 nM
Kd (human plasma IgG3 [2]): 840 nM

B2: DX392 (peptide)
peptide: AGSYWCKIWDVCPQSPGPEGGGK
modifications: N-terminal acetyl (Ac-); C-terminal amide (-NH2); Oregon Green labeled
notes: as for B1
Kd (human plasma IgG3 [1]): 600 nM
Kd (human plasma IgG3 [3]): > 10000 nM
Kd (human plasma IgG3 [4]): > 10000 nM
Kd (human plasma IgG3 [2]): 320 nM

B3: DX-236 (peptide)
peptide: AEGTGDFWFCDRIAWYPQHLCEFLDPEGGGK
modifications: disulfide 10-21 (inferred); not fully specified; also: labeled, label not named, coupled via C-terminal lysine to NHS-Sepharose
notes: Cyclic (disulfide) phage-display peptide
Kd (goat serum albumin [5]): 23000 nM
Kd (pig serum albumin [6]): 500 nM
Kd (goat serum albumin [7]): 1600 nM
Kd (rabbit serum albumin): 500 nM

B4: DX395 (peptide)
peptide: AGKYWCNLWGVCPANPGPEGGGK
modifications: N-terminal acetyl (Ac-); C-terminal amide (-NH2); Oregon Green labeled
notes: as for B1
Kd (human plasma IgG3 [2]): 1000 nM
Kd (human plasma IgG4 [8]): > 10000 nM

B5: DX398 (peptide)
peptide: AGAATCSTSYWYYQWFCTDSPGPEGGGK
modifications: N-terminal acetyl (Ac-); C-terminal amide (-NH2); Oregon Green labeled
notes: as for B1
Kd (human plasma IgG3 [1]): 40 nM
Kd (human plasma IgG3 [9]): > 10000 nM
Kd (human plasma IgG2 [10]): > 10000 nM
Kd (human plasma IgG3 [3]): 300 nM
Kd (human plasma IgG3 [11]): > 10000 nM
Kd (human plasma IgG3 [4]): 300 nM
Kd (human plasma IgG4 [12]): 1600 nM
Kd (human plasma IgG3 [2]): 20 nM
Kd (human plasma IgG1 [13]): 2400 nM
Kd (human plasma IgG4 [8]): 3500 nM
Kd (human plasma IgG1 [14]): 4600 nM

B6: DX404 (peptide)
peptide: AGTYWCTFWELPCDPAPGPEGGGK
modifications: N-terminal acetyl (Ac-); C-terminal amide (-NH2); Oregon Green labeled
notes: as for B1
Kd (human plasma IgG3 [1]): 200 nM
Kd (human plasma IgG2 [15]): 2000 nM
Kd (human plasma IgG1 [16]): 2000 nM
Kd (human plasma IgG3 [2]): 10 nM
Kd (human plasma IgG2 [17]): 1000 nM
Kd (human plasma IgG1 [13]): 1500 nM
Kd (human plasma IgG2 [18]): 8600 nM
Kd (human plasma IgG1 [14]): 8800 nM

B7: DX-321 (peptide)
peptide: AEGTGDRNMCKFSWIRSPAFCARADPE
modifications: not fully specified (bridges); cysteine pairing not given here; also: label not named, exact tested form not given here, immobilised via C-terminal lysine to Sepharose
Kd (human serum albumin [19]): 84000 nM
Kd (goat serum albumin [5]): 83000 nM
Kd (rat serum albumin [20]): 117000 nM
Kd (Rhesus serum albumin [21]): 82000 nM
Kd (pig serum albumin [22]): 21000 nM
Kd (bovine serum albumin): 21000 nM
Kd (human serum albumin [23]): 900 nM
Kd (goat serum albumin [7]): 95000 nM
Kd (rat serum albumin [24]): 23000 nM
Kd (Rhesus serum albumin [25]): 38000 nM

B8: DX389 (peptide)
peptide: AGPHNCDDHYWYCKWFPGPEGGGK
modifications: N-terminal acetyl (Ac-); C-terminal amide (-NH2); Oregon Green labeled
notes: as for B1
Kd (human plasma IgG3 [1]): 1800 nM
Kd (human plasma IgG2 [26]): > 10000 nM
Kd (human plasma IgG3 [4]): > 10000 nM
Kd (human plasma IgG3 [2]): 2500 nM
